System: acute lung injury induced by LPS-zymosan
Experiment: Lethal model of acute lung injury (ALI) / ARDS in rats (LPS-zymosan)
Assay type: in vivo, Sprague Dawley rats
Description: Male Sprague Dawley rats with body weight between 250 and 280 grams were used. Lung injury was induced under general anesthesia (ketamine/xylazine) by intratracheal instillation of a combination of lipopolysaccharide (LPS)-zymosan. Immediately afterwards, the animals were randomly assigned to three experimental groups of 12 animals each.
The animals were allowed to evolve without any treatment until the onset of the first symptoms.
Therefore, treatments were begun approximately 8 hours after the toxins were instilled. The experiment was aimed at evaluating the effect of treatment with both EGF formulations solely on the acute phase of ARDS. The treatments were performed by orofacial mask adapted from a volatile anesthesia machine. Treatments were performed twice daily. The animals were also treated once a day with hydrocortisone acetate (10 mg/kg) as coadjuvant treatment.
After 72 hours of treatment onset, the study was stopped. Surviving animals were anesthetized and subjected to deep bronchoalveolar lavage in 5 ml of sterile saline for cytological and biochemical study, as well as arterial blood sampling for determination of blood gas parameters. Then the lungs were insufflated with 10 ml of 10% neutral formalin and processed for histology.

[1] = arterial blood, survivors at 72 hours
[2] = bronchoalveolar lavage, survivors at 72 hours

B1: EGF in physiological saline: spray of EGF (Epidermal Growth Factor) in physiological saline at 25 μg/ml/kg (protein, UniProt P01133 23-1207, looked up)
Pro-epidermal growth factor: PQHWSCPEGTLAGNGNSTCVGPAPFLIFSHGNSIFRIDTEGTNYEQLVVDAGVSVIMDFHYNEKRIYWVDLERQLLQRVFLNGSRQERVCNIEKNVSGMAINWINEEVIWSNQQEGIITVTDMKGNNSHILLSALKYPANVAVDPVERFIFWSSEVAGSLYRADLDGVGVKALLETSEKITAVSLDVLDKRLFWIQYNREGSNSLICSCDYDGGSVHISKHPTQHNLFAMSLFGDRIFYSTWKMKTIWIANKHTGKDMVRINLHSSFVPLGELKVVHPLAQPKAEDDTWEPEQKLCKLRKGNCSSTVCGQDLQSHLCMCAEGYALSRDRKYCEDVNECAFWNHGCTLGCKNTPGSYYCTCPVGFVLLPDGKRCHQLVSCPRNVSECSHDCVLTSEGPLCFCPEGSVLERDGKTCSGCSSPDNGGCSQLCVPLSPVSWECDCFPGYDLQLDEKSCAASGPQPFLLFANSQDIRHMHFDGTDYGTLLSQQMGMVYALDHDPVENKIYFAHTALKWIERANMDGSQRERLIEEGVDVPEGLAVDWIGRRFYWTDRGKSLIGRSDLNGKRSKIITKENISQPRGIAVHPMAKRLFWTDTGINPRIESSSLQGLGRLVIASSDLIWPSGITIDFLTDKLYWCDAKQSVIEMANLDGSKRRRLTQNDVGHPFAVAVFEDYVWFSDWAMPSVMRVNKRTGKDRVRLQGSMLKPSSLVVVHPLAKPGADPCLYQNGGCEHICKKRLGTAWCSCREGFMKASDGKTCLALDGHQLLAGGEVDLKNQVTPLDILSKTRVSEDNITESQHMLVAEIMVSDQDDCAPVGCSMYARCISEGEDATCQCLKGFAGDGKLCSDIDECEMGVPVCPPASSKCINTEGGYVCRCSEGYQGDGIHCLDIDECQLGEHSCGENASCTNTEGGYTCMCAGRLSEPGLICPDSTPPPHLREDDHHYSVRNSDSECPLSHDGYCLHDGVCMYIEALDKYACNCVVGYIGERCQYRDLKWWELRHAGHGQQQKVIVVAVCVVVLVMLLLLSLWGAHYYRTQKLLSKNPKNPYEESSRDVRSRRPADTEDGMSSCPQPWFVVIKEHQDLKNGGQPVAGEDGQAADGSMQPTSWRQEPQLCGMGTEQGCWIPVSSDKGSCPQVMERSFHMPSYGTQTLEGGVEKPHSLLSANPLWQQRALDPPHQMELTQ
modifications: Pro-epidermal growth factor
notes: spray of EGF (Epidermal Growth Factor) in physiological saline at 25 μg/ml/kg
- Death total (12 animals per group, 72 hours): 5
- Death total (percent) (12 animals per group, 72 hours): (41.6%)
- Mortality (deaths) 48 hours (12 animals per group, EGF 25 μg/ml, orofacial mask twice daily): 5
- Arterial pH [1]: 7.12 ± 0.1
- Arterial saturation [1]: 76 ± 8.3
- Inflammatory cells per ml [2]: 2.2 × 10^3
- Red blood cells per ml [2]: 5.0 × 10^2
- Total phospholipids per g of lung tissue [2]: 0.000241 g
